We go through three molecules from PMC6879491 (Nature Communications, 2019).

Holding throughout (experiment): cell-bound Gaussia luciferase activity (equilibrium binding on intact cells); Jurkat (CD3, CD45) or U266 (HLA-A2) cells, 1 h at 37 °C with increasing concentrations of GpL fusion proteins, washed five times with ice-cold PBS; specific binding = total minus non-specific
What all share (conditions): partners not purified

One assay concerns the target T1, CD3 on Jurkat cells (Homo sapiens (Jurkat, donor T cells), UniProt P07766).
T1 construct: CD3ε, the chain addressed by the diL2K scFv, on the surface of CD3-positive cells; On cells CD3ε stands within the TCR-CD3 complex; also called CD3ε; CD3 antigen; source: on donor T cells (functional assays)

The target of another assay is T2, CD45 on cells (Homo sapiens (Jurkat, THP-1), UniProt P08575).
T2 construct: CD45 on the surface of human cell lines; also called pan-hematopoietic lineage marker CD45; source: on THP-1 cells (functional assays)

In the next assay the target is T3, HLA-A2 on cells (Homo sapiens, HLA-A*02:01 (allele …, strain)).
T3 construct: HLA-A2 on the surface of HLA-A2-positive human cell lines; source: on THP-1 cells (functional assays)

T2 sequence (P08575 26-1306): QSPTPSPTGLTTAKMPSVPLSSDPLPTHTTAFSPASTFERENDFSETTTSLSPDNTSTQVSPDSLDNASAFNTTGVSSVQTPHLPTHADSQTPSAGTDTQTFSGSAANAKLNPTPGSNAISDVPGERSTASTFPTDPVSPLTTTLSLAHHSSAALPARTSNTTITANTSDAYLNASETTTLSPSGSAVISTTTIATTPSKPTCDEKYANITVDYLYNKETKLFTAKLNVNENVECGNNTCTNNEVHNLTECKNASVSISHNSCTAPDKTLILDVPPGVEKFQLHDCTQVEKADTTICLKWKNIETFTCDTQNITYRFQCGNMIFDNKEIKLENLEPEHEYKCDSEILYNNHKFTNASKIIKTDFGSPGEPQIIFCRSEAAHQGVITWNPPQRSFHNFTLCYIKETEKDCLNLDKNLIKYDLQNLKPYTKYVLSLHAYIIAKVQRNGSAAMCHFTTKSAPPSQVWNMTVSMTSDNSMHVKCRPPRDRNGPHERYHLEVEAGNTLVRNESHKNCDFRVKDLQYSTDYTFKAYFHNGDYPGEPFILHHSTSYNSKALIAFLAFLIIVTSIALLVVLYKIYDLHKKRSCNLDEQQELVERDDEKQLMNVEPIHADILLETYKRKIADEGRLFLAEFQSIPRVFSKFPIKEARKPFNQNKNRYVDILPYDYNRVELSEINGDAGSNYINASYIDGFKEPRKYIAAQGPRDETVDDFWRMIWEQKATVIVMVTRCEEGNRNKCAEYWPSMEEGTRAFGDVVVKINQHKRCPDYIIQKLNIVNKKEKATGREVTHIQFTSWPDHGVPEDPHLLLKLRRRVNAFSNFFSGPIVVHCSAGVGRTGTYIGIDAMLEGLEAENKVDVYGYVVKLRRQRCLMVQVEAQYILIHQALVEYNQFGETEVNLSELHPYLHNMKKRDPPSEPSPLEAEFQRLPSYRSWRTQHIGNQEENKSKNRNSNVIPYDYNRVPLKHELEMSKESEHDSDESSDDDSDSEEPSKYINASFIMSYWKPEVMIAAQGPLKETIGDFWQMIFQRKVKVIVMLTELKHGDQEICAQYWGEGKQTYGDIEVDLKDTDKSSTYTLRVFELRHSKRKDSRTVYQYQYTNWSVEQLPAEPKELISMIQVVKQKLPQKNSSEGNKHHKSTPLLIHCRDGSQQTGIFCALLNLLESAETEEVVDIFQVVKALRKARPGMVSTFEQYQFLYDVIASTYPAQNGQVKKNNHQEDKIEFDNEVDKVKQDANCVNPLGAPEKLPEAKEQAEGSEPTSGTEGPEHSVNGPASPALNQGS

B1: scFvαCD3-GpL (scFv, V domains shown)
VH: DVQLVQSGAEVKKPGASVKVSCKASGYTFTRYTMHWVRQAPGQGLEWIGYINPSRGYTNYADSVKGRFTITTDKSTSTAYMELSSLRSEDTATYYCARYYDDHYCLDYWGQGTTVTVSS
VL: DIVLTQSPATLSLSPGERATLSCRASQSVSYMNWYQQKPGKAPKRWIYDTSKVASGVPARFSGSGSGTDYSLTINSLEAEDAATYYCQQWSSNPLTFGGGTKVEIK
notes: scFv of the anti-CD3ε antibody diL2K (de-immunized version of mouse monoclonal L2K); as the anti-CD3 scFv of m3 (GenBank MN432903); Expression plasmid pCR3; also called scFvCD3-GpL; anti-CD3 scFv fused to Gaussia princeps luciferase; source: Hek293, electroporated, secreted, in supernatant
As to B1, the Kd (commonly the free concentration of one partner at which half of the binding sites on the other are occupied at equilibrium, for simple one-to-one binding) in the assay with CD3 on Jurkat cells stood at 11.1 nM. This counts as double-digit nanomolar.

B2: scFvαCD45-GpL (scFv, V domains shown)
VH: QVQLVESGGGLVQPGGSLKLSCAASGFDFSRYWMSWVRQAPGKGLEWIGEINPTSSTINFTPSLKDKVFISRDNAKNTLYLQMSKVRSEDTALYYCARGNYYRYGDAMDYWGQGTSVTVSG
VL: DIVLTQSPASLAVSLGQRATISCRASKSVSTSGYSYLHWYQQKPGQPPKLLIYLASNLESGVPARFSGSGSGTDFTLNIHPVEEEDAATYYCQHSRELPFTFGSGTKLEIK
notes: as the scFv of m2 (GenBank MN432904); Expression plasmid pCR3; also called scFvCD45-GpL; anti-CD45 scFv fused to Gaussia princeps luciferase; source: Hek293, electroporated, secreted, in supernatant
The molecule B2 showed a dissociation constant (Kd) in the assay with CD45 on cells of 11.8 nM.

B3: scFvαHLA-A2-GpL (scFv, V domains shown)
VH: QVQLVQSGGGVVQPGGSLRVSCAASGVTLSDYGMHWVRQAPGKGLEWMAFIRNDGSDKYYADSVKGRFTISRDNSKKTVSLQMSSLRAEDTAVYYCAKNGESGPLDYWYFDLWGRGTLVTVSS
VL: DVVMTQSPSSLSASVGDRVTITCQASQDISNYLNWYQQKPGKAPKLLIYDASNLETGVPSRFSGSGSGTDFTFTISSLQPEDFATYYCQQYSSFPLTFGGGTKVDIK
notes: scFv of the human anti-HLA-A2/A28 antibody clone 3PF12 (VH GenBank AF163307, VL GenBank AF163308); as the scFv of m1 (GenBank MN432902); Expression plasmid pCR3; also called scFvHLA-A2-GpL; anti-HLA-A2 scFv fused to Gaussia princeps luciferase; source: Hek293, electroporated, secreted, in supernatant
In the case of B3, the dissociation constant (Kd) in the assay with HLA-A2 on cells stood at 0.9 nM.
